Measurements taken from PMC11564117, “Control of mitophagy initiation and progression by the TBK1 adaptors NAP1 and SINTBAD” (Nature Structural & Molecular Biology, 2024).

Molecular target: T1, SINTBAD–mCherry (UniProt A7MCY6 1-615)
T1 construct: the legend says SINTBAD-mCherry; also called mCherry–SINTBAD; similar to NAP1 TBK1 adaptor; source: Sf9 insect cells, purified (GST-batch protocol); not shown: mCherry, C-terminal, kept
Experiment: microscopy-based bead assay; Figs. 5b, 7d, 7f, Extended Data Fig. 9b: GST–4×Ub on glutathione beads; OPTN (mCherry-tagged or unlabeled) and GFP–TBK1 250 nM; NAP1, MBP–NAP1 or SINTBAD–mCherry 100 nM to 10 µM; unlabeled NDP52 250 nM where indicated; 25 mM Tris-HCl pH 7.4, 150 mM NaCl, 1 mM DTT; Fig. 5b without ATP, Fig. 7f with or without ATP/MgCl2; 30 min; confocal imaging
Details: both partners purified

T1 sequence (A7MCY6 whole entry): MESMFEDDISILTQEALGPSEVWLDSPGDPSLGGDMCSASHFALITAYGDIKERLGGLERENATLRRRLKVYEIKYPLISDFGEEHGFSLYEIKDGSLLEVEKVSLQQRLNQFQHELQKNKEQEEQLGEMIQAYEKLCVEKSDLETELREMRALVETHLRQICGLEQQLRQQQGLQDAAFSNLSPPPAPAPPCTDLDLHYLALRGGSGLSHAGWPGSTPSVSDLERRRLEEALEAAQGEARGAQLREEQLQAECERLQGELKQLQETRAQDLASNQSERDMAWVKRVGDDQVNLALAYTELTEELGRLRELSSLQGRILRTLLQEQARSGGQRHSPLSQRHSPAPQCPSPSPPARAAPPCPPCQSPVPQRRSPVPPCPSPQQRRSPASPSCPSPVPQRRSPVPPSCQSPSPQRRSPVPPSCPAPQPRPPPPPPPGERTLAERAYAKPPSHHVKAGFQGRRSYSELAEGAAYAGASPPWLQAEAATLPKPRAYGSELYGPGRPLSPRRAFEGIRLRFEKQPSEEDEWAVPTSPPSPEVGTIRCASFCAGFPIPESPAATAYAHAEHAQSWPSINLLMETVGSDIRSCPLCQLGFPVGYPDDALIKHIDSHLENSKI

binding result: binds
B1: NDP52 (unlabeled) (natural protein, human, UniProt Q13137 1-446, looked up)
chain: MEETIKDPPTSAVLLDHCHFSQVIFNSVEKFYIPGGDVTCHYTFTQHFIPRRKDWIGIFRVGWKTTREYYTFMWVTLPIDLNNKSAKQQEVQFKAYYLPKDDEYYQFCYVDEDGVVRGASIPFQFRPENEEDILVVTTQGEVEEIEQHNKELCKENQELKDSCISLQKQNSDMQAELQKKQEELETLQSINKKLELKVKEQKDYWETELLQLKEQNQKMSSENEKMGIRVDQLQAQLSTQEKEMEKLVQGDQDKTEQLEQLKKENDHLFLSLTEQRKDQKKLEQTVEQMKQNETTAMKKQQELMDENFDLSKRLSENEIICNALQRQKERLEGENDLLKRENSRLLSYMGLDFNSLPYQVPTSDEGGARQNPGLAYGNPYSGIQESSSPSPLSIKKCPICKADDICDHTLEQQQMQPLCFNCPICDKIFPATEKQIFEDHVFCHSL
notes: NDP52 (CALCOCO2), human cDNA in a pGST2 vector with N-terminal GST tag and TEV site; Called 'unlabeled NDP52' in the bead assays; also called nuclear dot protein 52; CALCOCO2; source: E. coli Rosetta pLysS, purified (GST-batch protocol)
